Assay results reported in patent publication US20140235490A1.

System: SNAPtide (FITC/DABCYL), List Biological Laboratories product #521

BoNT/A complex (botulinum neurotoxin type A with neurotoxin associated proteins, Hall A strain)
Km of SNAPtide conversion, non-bead based assay (free toxin): non-bead based assay: typical Km=0.7 µM
Km of the immobilized enzyme against the free enzyme: 3.2-fold lower than for the free enzyme
